Results reported in the DeepSol protein solubility set.

Test: soluble on expression in E. coli; label from the status in PepcDB or PDB records

Sequence | soluble on expression in E. coli
MGSDKIHHHHHHMASVYWIPKLRIIPRTKFVTICPITLTLSLSMQYSPNLAHGTLLRRYKRFLADVLLDDGTEITLHCPNTGSMKNCLFPGETVWFSTSNNPKRKYAHTWEQSSTPDKQLIGINTGRANALAEEAINLGVIKELTGYDRLQREVKYGEENSRIDILLSSDTRASCYIEVKSCTLLEEGSTSGRGYFPDSVTVRGQKHLRELIHMVKQGHRAVLLFVVQHSGINSVSPARHIDVAYSELFTQALDAGVEVLAYQTQMSPQESQILTSCPVIT | not soluble
MFADTCGFMNRSPEHIFGSPEIDYSDVSTGYLEDALIESGERSKRRRLLFEDPSKSFNDDDSQNDWGLHESYSCLNSQFVTPHVNTGERISGVSYCQETISNVYESPDTSVSYDKIYVREKSPTEPSSSNCGNKNKRLITKLVYPFGLVKPGGRENDVTLNDINERILMAPSRPIRHPVGDFASRPCVSGRGPGLSGKAVVALTKIQTQGRGTITIIRTKG | soluble
MSHKFSRRAFAVLTAAAISTSAFATTAPSAIAEPVSNVATADDSSVATSENSLDWGFKASWRTYVTGPWTGGTVDATGGATVNEDGTYNFTLGTGSNYDVDTEKGQLNYEGTVAFASDAHGFNITLSNPQITVEGDTATLSAELSDNAAPEETSTTRVDVAEFELTAPEVSETDADITYTWTDASGTFLETLQPEELSRYAGQEADALSFSITVDKASENPSDDVATGSSSSFLSTILNFLQQLASPLLKLFGSLSS | not soluble
MRIALIFLVLLVSFASSCKNFDKYMNMFCRYGLEQSPCTVEDYSTYKSACCAMKNNCSYKEFPKDDVCCFTVECLKRCFPEKLLKNDKVY | not soluble
MAKRVADAQIQRETYDSNESDDDVTPSTKVASSAVMNRRKIAMPKRRMAFK | soluble
MGSSHHHHHHGGTGENLYFQGGSGATAQNANPECVGPESPQAGIAPSCQGCPNAAICASAPKGPDPDIPLIRERLAGVKHKVMVVSGKGGVGKSTMTKELAFALGARGLSVGLMDMDICGPSLPRLTGVRGEDAHQSAGGIEPVLVDENVTMMSMHYLLSDKNEAVLFRGPRKNGVIKMFLKDVIWGNLDVLLIDTPPGTSDEHITVNSLLQQTTNGVDGAVLITTPQRVAEADVRREVNFCQKAKLPILGLVENMSGFVCPGCHKESQIFPKEEGGEGRKEGAGVRLSREFDVPLWGEVPLDPQLMKACEEGISFSEYVEKSGMTSSTTLDALFTVADQLIASLGIQVE | not soluble
MSLSELIKRLITAMTLCLTALLVHAQEWTKEDSLRLRKLLDSDQELNLNQDAVRQIDFGSAVGTPRMSVEKKWMLPDESLPEALPKPKVVLSLMPYKANTPYNWDPVFQKKIRMDKNTWRGDPHYEMRHQRSYSNWAHNPMAGGVRKSLEEIRASGVRFRQLSERANGMMVNSVVMDSPIPLFGGSGVYINGGTIGGLDLMAVFTKNFWDKKGKERRERTLEVLRTYGDSTTVLINRPIEQIAREGHHHHHH | not soluble
VGPKTGEENQVLVPNLNPTPENLEVVGDGFKITSSINLVGEEEADENAVNALREFLTANNIEINSENDPNSTTLIIGEVDDDIPELDEALNGTTAENLKEEGYALVSNDGKIAIEGKDGDGTFYGVQTFKQLVKESNIPEVNITDYPTVSARGIVEGFYGTPWTHQDRLDQIKFYGENKLNTYIYAPKDDPYHREKWREPYPESEMQRMQELINASAENKVDFVFGISPGIDIRFDGDAGEEDFNHLITKAESLYDMGVRSFAIYWDDIQDKSAAKHAQVLNRFNEEFVKAKGDVKPLITVPTEYDTGAMVSNGQPRAYTRIFAETVDPSIEVMWTGPGVVTNEIPLSDAQLISGIYNRNMAVWWNYPVTDYFKGKLALGPMHGLDKGLNQYVDFFTVNPMEHAELSKISIHTAADYSWNMDNYDYDKAWNRAIDMLYGDLAEDMKVFANHSTRMDNKTWAKSGREDAPELRAKMDELWNKLSSKEDASALIEELYGEFARMEEACNNLKANLPEVALEECSRQLDELITLAQGDKASLDMIVAQLNEDTEAYESAKEIAQNKLNTALSSFAVISEKVAQSFIQEALSFDLTLINPRTVKITASSEETSGENAPASFASDGDMNTFWHSKWSSPAHEGPHHLTLELDNVYEINKVKYAPRQDSKNGRITGYKVSVSLDGENFTEVKTGTLEDNAAIKFIEFDSVDAKYVRLDVTDSVSDQANGRGKFATAAEVNVHG | soluble
MGHHHHHHSHMGLWQQISNCMPDLALCSDIKFFLRCLERWLNRNSSALQLPARSTQKEIISAFPTKVPSSSHWDWLDSGCSPQKASRSRVGCRLTREAQGVRELPPLAKGSCEGLCREERGIPAQILCFPHGLCNPQTRRFPWVPAPPGPWVSSKKLGSHLGRH | not soluble
MRVGLVHGFLSRRYLDFWRAYLEALGVEVVEAAPPPSDLPFCLPVQRLLAQVEALKEAGVDYLLLPDLQGGVESERGGGQCPWLLDLEAALLRYFPGLPPVLKVPAELSERVLGRAGEVGQLLVRNPMLVGRALDRTRRLLKPPPPLPTPQGSVGVVAQPYLLEEPAFRREVEAALRAHGLEAYFPDLPPERLREEADRLLPVDLPTDRELVGAIHYLGRLGRVKGLALVVSYACPPIPGLMRKAARRLGKPYRLLTLGEDWQEPLAALKAEMEKGNRGG | soluble
MSLGLLNCLTGAALPLMESDVTSYVSGYALGLTASLTYGNLEAQPFQGLFVYPIDEYSTVVGFEAVIADRVVTIQLRDKAKLDRSHLDIQPATVTGNFPEEESPIAPGKVTLDEDLERVLFVVNLGTIAPMENVTVFISTSSELPTLPSGAVRVLLPAICAPTVPPSCTHRFGSSSPQPQGKDPHCFGTQTKDSYNRLCLATLLDTKVTNPMEYEFKFQLEIRGPCLLAGVESPTHEIRADAAPSAHSAKSIIITLAKKHTFDRPVEILLHPSEPHMPHVLVEKGDMTLGEYDQHLKGKADFIRGTKKDNSAERKTEVIRKRLHKDIPHHSVIMLNFCPDLQSVQPNPRKAHGEFIFLIDRSNSMSKTNIQCIKEAMLVALKSLMPACFFNIIGFGSTFKAVFASSRIYNEENLTMACDCIQRMQADMGGTNMLSPLKWVLRQPLRRGHPRLLFLITDGSVNNTGKVLELVRNHASSTRCYSFGIGPTVCYRLVKGLASVSKGSAEFLMEGERLQPKMVKSLKKAMAPVLSDVTVEWVFPETTEALISPVSTSSLFPGERLMGYGIVCDASLYISNSRSEGHHHHHH | not soluble
MGSDKIHHHHHHDAVRTYYAKAISANEKTNSVCMFVKEAEKWAMDWDEKAKDPQFQKPPLFGLPMSLKECVPLEGYDQTRGFVQDTFRPTETDGVLVQQLKKLGAIPYVQTNVPQSLLSYNCSNPVYGTTNHPMDKTRTSGGSSGGESALISADGSLLGIGGDVGGSIRIPCAYTGTTGIKPSHLRFSHRGVCGSVPGRPLINSNDGPMSTRVETNVDFLRTVWADTWITEQDPYVPPVTWNEEAYKSDKKLKIGYYVDDGWFTPTPVCQRAVMEAKQILEDSGHTLVPFRPPRVPEVLRMFLRAVCVDAGTFLSKKLMNDIIDPLLYTQVVLWMVPVPIQRFLSSIIKVFFPRLGNLMDAMTLSTVELRNTYADIEAYRSEMAGLMVDQKIDALLCPVTVSPALPHVSPSKLFAGTSYTGIFNLLDYAAGSVNVTHVTKQDELDLEDYEESDPWYALAKKGSRGTIGFPIGVQVATPPYKEETCLRIMREIERGVTGK | not soluble
MKQLATPFQEYSQKYENIRLERDGGVLLVTVHTEGKSLVWTSTAHDELAYCFHDIACDRENKVVILTGTGPSFCNEIDFTSFNLGTPHDWDEIIFEGQRLLNNLLSIEVPVIAAVNGPVTNHPEIPVMSDIVLAAESATFQDGPHFPSGIVPGDGAHVVWPHVLGSNRGRYFLLTGQELDARTALDYGAVNEVLSEQELLPRAWELARGIAEKPLLARRYARKVLTRQLRRVMEADLSLGLAHEALAAIDLGMESEQ | soluble
MDKALTNHVIILSFDCLSALDFPILQKLPHFQSLIKKGTVVEKVEPIYPSVTYPSHSTIVTGNYPNKHGVVSNTLLQPGRESPDWHWYRKSIKGTTLYDEARKANLTTAALLWPVTGRANIDYNLPEIFPNRPWQNQVLVSLFSGSPLYQLDLNRRFGHIRNGLSQPELDDFVLASAVHTIQTKKPNIMFVHFTDLDTQRHYHGFESNETIAAIQRHDERLGKIIQALKESDLYEESTIIALGDHSALSENKSIQLNVLFHQRGLISLNKKRKLVDWKAYCQSCDGSAYVYVKDKNDTDTIREVQLLLEELLQNKQNGIEFILHDEAAKDCGADGNCLFMLEAREGYYFTENYTGDFIKEITEKDVTLSKKYTFGTHGYSPTKPNYETIFIAAGKGIKSGVTVPYMRLIDEGPTIARLLGLHLGETDGAIVEDLLQLLEHHHHHH | soluble
MKIVMKISEVRGEILLAAADADIVGKKFREKNLHIEVYPSFYGEVRVTDEMFISSMNICTIANLVGEYTIGVAIDAGFIEKDNILYIQKVPYAQYAKIFQ | soluble
MPETTYKYEDNEVKKKKTIFNENGYIIEELHYDKNRKEPYSYKKRYNDKGLLVESHEHTYTYEYDKNGNLVQIKRPKNSAYGGLERTTYNKAGKIIRTQTFTQNQYDKAGVKITDDSNYLKDKNGELYQSLTDYSYIYNKDGKLQEIRDNVFSSGTIKYSYEYEDGLYVKTAELVTQKFVTYYDKAGNEVKYKWITYSLGPDKPRTQLHLVFKENKRDKYGNLIYQVANRIEELDPEKKGTDVGIYEKKIIEYEYYELEHHHHHH | not soluble
MGSDKIHHHHHHMVSPEHLRRSKAVQRRTGRTFHIATRFLPERVRYPTYVLYAFFRLTDEIVDDEAPGPPDEQRRRLAHVRAAALGDRDPDDPVLAAFAALREDHDIPREEVTTFIDAMQQDVDTARYRSHDDLAEYLRGSSVAVGYMMLSIMDAPEPERARPHAASLGEAFQLTNFLRDVREDVLDYDRIYLPSQTLAAHGASHDDIAALSATPQVRDAIRAELDRTERLYRHGVAGIEHLPADCQFPVLAAAVMYADQHRLIRAQDCDVLSQRPTLTLRRRLSVVARTWLRWRVSDDPTAVFHAVTGIGEPDAGGVPEQSFAVRESQPTRAD | not soluble
MGSDKIHHHHHHMAYLEVLRYLYHKRPMGKVKPGLERISMLLSKLGNPHLEYKTIHIGGTNGKGSVANMVSNILVSQGYRVGSYYSPHLSTFRERIRLNEEYISEEDVVKIYETMEPILNELDKEEIFSPSFFEVVTAMAFLYFAEKNVDIAVLEVGLGGRLDATNVVFPLCSTIVTVDRDHEKTLGYTIEQIAWEKSGIIKERVPLVTGERKREALKVMEDVARKKSSRMYVIDKDFSVKVKSLKLHENRFDYCGENTFEDLVLTMNGPHQIENAGVALKTLEATGLPLSEKAIREGLKNAKNLGRFEILEKNGKMYILDGAHNPHGAESLVRSLKLYFNGEPLSLVIGILDDKNREDILRKYTGIFERVIVTRVPSPRMKDMNSLVDMAKKFFKNVEVIEDPLEAIESTERATVVTGSLFLVGYVREFLTTGKINEEWKL | soluble
MTADANKSESLLCMDKAREAIKSGDTDKARRMLLKAKKLDPGQNIEFLTKKIDDMTNNTSSSSQTSSSRASEERSYAHDDHYDDPNLRNRKARSPVKKNGKTEPEPKQRSASRTPKLGVDYTSEQKELVERIRHCKDYYEILKIDKKASDDDIRKEYRKLALKLHPDKCRAPHATEAFKALGNAYAVLSDTDKRRQYDQYGAEAANSHTPTTRRRGGGHGAFFEHDYAHGFEAEFTPEEIFNMFFGGGFPTEQVRRRARYAQQQQYHHYEQQQSPYGPLLQLLPLIAIMVIGLLAQLMVGEPAYSLHQTSKFTIKRLTADLRVPYFVRTDFETSYRGRIRQVEQQVEDDYIQNLRMNCYKEQNLKETKLYRARWMRDEAMMRDAERTPLPSCIRLNEIYSH | soluble
